Biological target: T1, soluble EPCR ECD (truncated after Ser210) (Homo sapiens, UniProt Q9UNN8)
T1 chain: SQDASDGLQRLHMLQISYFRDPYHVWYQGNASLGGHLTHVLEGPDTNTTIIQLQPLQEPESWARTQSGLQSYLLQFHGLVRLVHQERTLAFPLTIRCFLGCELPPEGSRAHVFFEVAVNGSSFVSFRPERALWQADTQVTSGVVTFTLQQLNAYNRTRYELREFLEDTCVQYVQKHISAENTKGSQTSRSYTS
Test: solid-phase plate binding assay

B1: activated protein C (protein)
chain 1: ANSFLEELRHSSLERECIEEICDFEEAKEIFQNVDDTLAFWSKHVDGDQCLVLPLEHPCASLCCGHGTCIDGIGSFSCDCRSGWEGRFCQREVSFLNCSLDNGGCTHYCLEEVGWRRCSCAPGYKLGDDLLQCHPAVKFPCGRPWKRMEKKRSHL
chain 2: LIDGKMTRRGDSPWQVVLLDSKKKLACGAVLIHPSWVLTAAHCMDESKKLLVRLGEYDLRRWEKWELDLDIKEVFVHPNYSKSTTDNDIALLHLAQPATLSQTIVPICLPDSGLAERELNQAGQETLVTGWGYHSSREKEAKRNRTFVLNFIKIPVVPHNECSEVMSNMVSENMLCAGILGDRQDACEGDSGGPMVASFHGTWFLVGLVSWGEGCGLLHNYGVYTKVSRYLDWIHGHIRDKEAPQKSWAP
modifications: APC biotinylated with biotin-FPR-chloromethylketone, Ca2+ and Mg2+
Q: For B1, which Kd is on record?
A: 24 nM
